# Data reported in PMC9720079, “Identification and Characterization of a Bacteriocin from the Newly Isolated Bacillus subtilis HD15 with Inhibitory Effects against Bacillus cereus” (Journal of Microbiology and Biotechnology, 2022).
# Ends that are not written are not given here.
# Columns and labels:
# [1] = test system: α-amylase (E.C. 3.2.1.1); experiment: Effect of enzyme treatment on antimicrobial activity; assay type: in vitro ADME; conditions: 2 mg/ml, pH 7.0, 37°C, 30 min
# Procedure: (§1) To evaluate the pH stability of the antimicrobial substance, the buffers were prepared with 0.1 M glycine-HCl buffer (pH between 2 and 4), 0.1 M sodium acetate buffer (pH between 4 and 6), 0.1 M sodium phosphate buffer (pH between 6 and 8), and 0.1 M Tris-HCl buffer (pH between 8 and 10). The antimicrobial substance was mixed with buffer at a ratio of 1:15 and incubated at 37°C for 12 h, and relative antimicrobial activity was measured. To evaluate temperature stability, purified bacteriocin was incubated at 0°C, 20°C, 40°C, 60°C, 70°C, 80°C, or 90°C for 12 h, and at 100°C for 1 h. Relative antimicrobial activity was assessed using the agar well diffusion method, and the zone of inhibition was measured in millimeters. To assess the effect of various enzymes on antimicrobial activity, lysozyme (E.C. 3.2.1.17), α-amylase (E.C. 3.2.1.1), lipase (E.C. 3.1.1.3), protease (E.C. 3.4.24.31), and proteinase K (E.C. 3.4.21.64) (all from Sigma-Aldrich) and pronase E (E.C. 3.4.24.4; Merck Millipore, USA) were prepared in sodium phosphate buffer (pH 7.0) at a final concentration of 4 mg/ml. Purified bacteriocin was mixed with each enzyme at 2 mg/ml and incubated at 37°C for 30 min, and the relative antimicrobial activity was measured.
# [2] = biological target: T1, proteinase K (E.C. 3.4.21.64) (Parengyodontium album, UniProt P06873); experiment: as above; assay type: in vitro ADME; conditions: 30 min; for effect of proteinase K treatment on antimicrobial activity: 2 mg/ml, pH 7.0, 37°C
# T1 construct: purchased Sigma-Aldrich
# Procedure: as §1
# [3] = test system: lipase (E.C. 3.1.1.3); experiment: as above; assay type: in vitro ADME; conditions: 30 min
# Procedure: as §1
# [4] = test system: Bacillus cereus KCCM 12667; experiment: Agar well diffusion test of purified bacteriocin; assay type: cell-based; conditions: Fig. 3C
# Procedure: (§2) Antimicrobial activity against several gram-positive and gram-negative bacteria was assessed using the agar well diffusion method, with some modifications. Cultures were incubated in tryptic soy medium at 37°C for 60 h. Cell-free supernatants were prepared by centrifugation (3,800 ×g, 4°C, 30 min) and used as an antagonistic substance. Each pathogen at 7.0 log CFU/ml was spread on a TSA plate. An 8-mm-diameter well was created using a cork borer on the agar plate, and 50 μl of the cell-free supernatant was added to the wells. The plates were left undisturbed for a few hours to allow the supernatant to diffuse into the agar and then cultured at 37°C for 18 h. The diameter of the resultant growth inhibition zone was measured as a measure of antimicrobial activity.
# The molecular weight of bacteriocin was determined by tricine sodium dodecyl sulfate-polyacrylamide gel electrophoresis (SDS-PAGE; Bio-Rad, USA) at 100 V for 5 h on a 20% polyacrylamide gel with an ultra-low-range molecular weight marker (1,060–26,600 Da; Sigma-Aldrich), followed by silver staining (Amersham Biosciences, Sweden). Direct detection was then performed to determine whether the protein bands corresponded to bacteriocin [23].
# [5] = pH stability of bacteriocin, relative antimicrobial activity; assay type: physicochemical; conditions: 12 h; for Relative activity (%): substance:buffer 1:15, 37°C, read-out agar well diffusion
# Procedure: as §1
# [6] = Temperature stability of bacteriocin, relative antimicrobial activity; assay type: physicochemical; conditions: for temperature range of stable activity: 12 h incubation; for Relative activity (%): 12 h, read-out agar well diffusion
# Procedure: as §1
# [7] = test system: gram-negative bacteria; experiment: Inhibitory spectrum, well diffusion method, gram-negative bacteria as a group; assay type: cell-based
# Procedure: as §2
# [8] = test system: Vibrio parahaemolyticus KCCM 11965; experiment: Inhibitory spectrum, well diffusion method; assay type: cell-based; parameters: key: +++: Greater than 15 mm; −: no inhibition zone; conditions: inhibition zone class
# Procedure: as §2
# [9] = test system: Pseudomonas aeruginosa KCCM 12539; experiment: Inhibitory spectrum, well diffusion method; assay type: cell-based; parameters: key: +++: Greater than 15 mm; −: no inhibition zone; conditions: inhibition zone class
# Procedure: as §2
# [10] = test system: Vibrio vulnificus ATCC 29306; experiment: Inhibitory spectrum, well diffusion method; assay type: cell-based; parameters: key: +++: Greater than 15 mm; −: no inhibition zone; conditions: inhibition zone class
# Procedure: as §2
# [11] = test system: Cronobacter sakazakii KCTC2949; experiment: Inhibitory spectrum, well diffusion method; assay type: cell-based; parameters: key: +++: Greater than 15 mm; −: no inhibition zone; conditions: inhibition zone class
# Procedure: as §2
# [12] = test system: Escherichia coli O157:H7 ATCC 43894; experiment: Inhibitory spectrum, well diffusion method; assay type: cell-based; parameters: key: +++: Greater than 15 mm; −: no inhibition zone; conditions: inhibition zone class
# Procedure: as §2
# [13] = test system: Shigella sonnei KCCM 41282; experiment: Inhibitory spectrum, well diffusion method; assay type: cell-based; parameters: key: +++: Greater than 15 mm; −: no inhibition zone; conditions: inhibition zone class
# Procedure: as §2
# [14] = test system: Salmonella choleraesuis KCCM 40736; experiment: Inhibitory spectrum, well diffusion method; assay type: cell-based; parameters: key: +++: Greater than 15 mm; −: no inhibition zone; conditions: inhibition zone class
# Procedure: as §2
# [15] = test system: Salmonella enteritidis CCARM 8206; experiment: Inhibitory spectrum, well diffusion method; assay type: cell-based; parameters: key: +++: Greater than 15 mm; −: no inhibition zone; conditions: inhibition zone class
# Procedure: as §2
# [16] = test system: Shigella flexneri KCCM 11937; experiment: Inhibitory spectrum, well diffusion method; assay type: cell-based; parameters: key: +++: Greater than 15 mm; −: no inhibition zone; conditions: inhibition zone class
# Procedure: as §2
# [17] = test system: Bacillus cereus KCCM 40152; experiment: Inhibitory spectrum, well diffusion method; assay type: cell-based; conditions: for antimicrobial activity against B. cereus: well diffusion method
# Procedure: as §2
# [18] = test system: Listeria monocytogenes ATCC 15313; experiment: Inhibitory spectrum, well diffusion method; assay type: cell-based; conditions: for antimicrobial activity against L. monocytogenes: well diffusion method
# Procedure: as §2
# [19] = test system: B. cereus; experiment: Antimicrobial activity in arbitrary units, serial 2-fold dilutions, of purification steps; assay type: cell-based, Bacillus cereus
# Procedure: The protein content in the bacteriocin solution was measured using the modified Lowry method. A 50 μl volume of bacteriocin was mixed with 550 μl of biuret reagent (0.75 mM cupric sulfate and 94 mM sodium hydroxide) and incubated for 10 min at 25°C. A 25 μl volume of Folin–Ciocalteu’s phenol reagent (Sigma-Aldrich, USA) was then added, followed by incubation for 30 min at 25°C. Absorbance was measured at 725 nm using a VersaMax ELISA Microplate Reader (Molecular Devices, USA), and a standard curve was constructed using bovine serum albumin (Sigma-Aldrich). Antimicrobial activity was measured as arbitrary units per milliliter of purified microbial culture using serial 2-fold dilutions of the antimicrobial substance. […] AU/mL was calculated by multiplying AU by the dilution factor.
# [20] = test system: Staphylococcus aureus ATCC 25923; experiment: Inhibitory spectrum, well diffusion method; assay type: cell-based; parameters: key to Antibacterial activity: +++: Greater than 15 mm; −: no inhibition zone
# Procedure: as §2
# [21] = listed as purified protein from B. subtilis HD15
# [22] = listed as B. subtilis HD15 bacteriocin
# [23] = well diffusion, inhibition zone class
# T1 sequence (P06873 106-384): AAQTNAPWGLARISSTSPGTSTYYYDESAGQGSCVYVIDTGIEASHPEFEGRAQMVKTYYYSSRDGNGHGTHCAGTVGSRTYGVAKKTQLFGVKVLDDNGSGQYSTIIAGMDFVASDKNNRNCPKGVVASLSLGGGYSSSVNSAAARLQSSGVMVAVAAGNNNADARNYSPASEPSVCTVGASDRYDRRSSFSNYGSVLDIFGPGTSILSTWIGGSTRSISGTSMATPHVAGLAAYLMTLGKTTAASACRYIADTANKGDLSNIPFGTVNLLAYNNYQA
sequence,measurement,setting,value
"SIGACLVDGPIPVIEG [bacteriocin from Bacillus subtilis HD15, 3.6 kDa bacteriocin related to subtilosin A, purified from B. subtilis HD15 culture by ammonium sulfate, DEAE-Sepharose and Sephacryl steps]",effect of amylase treatment on antibacterial activity,[1],no effect
same,effect of proteinase K treatment on antimicrobial activity,[2],lost
same,effect of proteinase K treatment on antimicrobial activity,[2]; [21],completely inhibited
same,Relative activity (%),"[2]; proteinase K 2 mg/ml, sodium phosphate buffer pH 7.0, 37°C, read-out relative antimicrobial activity",0%
same,effect of lipase treatment on antibacterial activity,"[3]; 2 mg/ml, pH 7.0, 37°C",no effect
same,Relative activity (%),"[3]; lipase 2 mg/ml, sodium phosphate buffer pH 7.0, 37°C, read-out relative antimicrobial activity",100%
same,"Antibacterial activity, zone around purified bacteriocin",[4],clear zone
same,Relative activity (%),"[5]; pH 2, 0.1 M glycine-HCl buffer",50%
same,Relative activity (%),"[5]; pH 3, 0.1 M glycine-HCl buffer",80%
same,antimicrobial activity remaining,"[5]; pH 3 to 9 as worded in text, 37°C",80%
same,Relative activity (%),"[5]; pH 4, 0.1 M glycine-HCl or sodium acetate buffer",95%
same,Relative activity (%),"[5]; pH 5, 0.1 M sodium acetate buffer",100%
same,antimicrobial activity maintained,"[5]; pH 5–7, 37°C",100%
same,Relative activity (%),"[5]; pH 6, 0.1 M sodium acetate or sodium phosphate buffer",100%
same,Relative activity (%),"[5]; pH 7, 0.1 M sodium phosphate buffer",100%
same,Relative activity (%),"[5]; pH 8, 0.1 M sodium phosphate or Tris-HCl buffer",95%
same,Relative activity (%),"[5]; pH 9, 0.1 M Tris-HCl buffer",80%
same,Relative activity (%),"[5]; pH 10, 0.1 M Tris-HCl buffer",30%
same,antimicrobial activity after incubation,[6]; 0–50°C for 12 h,100%
same,temperature range of stable activity,[6],up to 70 °C
same,temperature range of stable activity,[6]; [21],0–70 °C
same,activity remaining,[6]; after 12 h at 70°C and over a pH range between 3 and 9,more than 70%
same,Relative activity (%),[6]; heat 50°C,100%
same,Relative activity (%),[6]; heat 60°C,95%
same,Relative activity (%),[6]; heat 70°C,70%
same,Relative activity (%),[6]; heat 80°C,20%
same,Relative activity (%),[6]; heat 90°C,0%
same,antimicrobial activity against gram-negative bacteria,[7],no activity
same,Antibacterial activity,[8],−
same,Antibacterial activity,[9],−
same,Antibacterial activity,[10],−
same,Antibacterial activity,[11],−
same,Antibacterial activity,[12],−
same,Antibacterial activity,[13],−
same,Antibacterial activity,[14],−
same,Antibacterial activity,[15],−
same,Antibacterial activity,[16],−
same,antimicrobial activity against B. cereus,[17]; [22],strong inhibition
same,antimicrobial activity against B. cereus,[17]; [21],high antimicrobial activity
same,Antibacterial activity,[17]; [23],+++ (Greater than 15 mm)
same,antimicrobial activity against L. monocytogenes,[18]; [22],strong inhibition
same,antimicrobial activity against L. monocytogenes,[18]; [21],high antimicrobial activity
same,Antibacterial activity,[18]; [23],+++ (Greater than 15 mm)
same,Total activity (AU),"[19]; purification step from 500 ml culture, reciprocal of maximum 2-fold dilution giving a transparent zone, indicator strain not given","10,500 AU"
same,Specific activity (AU/mg),[19]; total activity per total protein (modified Lowry) of purification step,413.4 AU/mg
same,antimicrobial activity against Staphylococcus aureus,[20]; well diffusion method,no activity
same,Antibacterial activity,[20]; [23],−
